Two molecules from patent CN114106159A (ANYUAN MEDICINE SCIENCE AND TECH SHANGHAI LIMITED COMPANY, dated 2022) can be followed below.

The target in assay [1] is T1, 刺突S蛋白-鼠Fc融合蛋白 (S-mFc) (SARS-CoV-2; mouse, UniProt P0DTC2 14-1213).
T1 construct: domain: S蛋白全长区段
Put plainly: flow cytometry, blocking of S-mFc binding to 293T-ACE2 cells.

The target of assay [2] is T2, SARS-CoV S1蛋白 (ACRO Biosystems) (SARS-CoV, UniProt P59594 14-667).
T2 construct: domain: S1
Description: indirect ELISA, SARS-CoV S1 coated at 0.1 μg/mL.

In assay [3] the target is T3, SARS-CoV-2 S1蛋白 (ACRO Biosystems) (SARS-CoV-2, UniProt P0DTC2 16-685).
T3 construct: domain: S1
Put plainly: competition ELISA, coated SARS-CoV-2 S1, HRP-hACE2-Fc as competitor.

B1: 鼠源抗体S1B-91-3 (murine monoclonal antibody against SARS-CoV-2 S1) (antibody, V domains shown)
VH: QVQLQQSGPQLVRPGASVKISCKASGYSFTDYWLHWVKQRPGQGLEWIGMLDPSDGETRLNQKFKDKATLTVDKSSTTAYMQLSSPTSEDSAVYYCARRHFGYDFDYWGQGTTLTVSS
VL: DIVMTQAAPSVPVTPGESVSISCRSSKSLLHSNGNTYLYWFLQRPGQSPQLLIYRMSNLASGVPDRFSGSGSGTAFTLRISRVEAEDVGVYYCMQHLEYPLTFGGGTKLEVK
notes: also called 鼠源单抗S1B-91-3; 鼠抗S1B-91-3
Turning to B1, the IC50 in assay [1] was found to be 0.0137 mg/L. The binding result in assay [2] is “no binding”.

B2: 人源化抗体hS1B-91-3 (humanized antibody) (antibody, V domains shown)
VH: EVQLVQSGAEVKKPGSSVKVSCKASGYSFTDYWLHWVRQAPGQGLEWIGMLDPSDGETRLNQKFKDKATLTVDKSTTTAYMQLSSLRSEDTAVYYCARRHFGYDFDYWGQGTTVTVSS
VL: DIVMTQSPSSLPVTPGQPASISCRSSKSLLHSNGNTYLYWFLQKPGKSPQLLIYRMSNLASGVPDRFSGSGSGTDFTLKISRVEAEDVGVYYCMQHLEYPLTFGGGTKVEIKR
notes: also called 人源化单克隆抗体hS1B-91-3
Consider B2, for which the IC50 in assay [1] was 0.00813 mg/L. This molecule also showed an EC50 in assay [3] of 0.0738 mg/L.
